Source: patent US20120129159A1 (MIT, published 2012)
Positions count from the first letter of the chain named.

Legend:
mCherry-FKBP-LAP1 = mCherry-FKBP-LAP1 (UniProt P62942 2-108); assay: cell-based or functional assay
FKBP-LAP1 = FKBP-LAP1 (UniProt P62942 1-108, limits assumed); assay: cell-based or functional assay
Sequence of FKBP-LAP1 (P62942 other isoform, or with tags, fused parts or gaps limits assumed): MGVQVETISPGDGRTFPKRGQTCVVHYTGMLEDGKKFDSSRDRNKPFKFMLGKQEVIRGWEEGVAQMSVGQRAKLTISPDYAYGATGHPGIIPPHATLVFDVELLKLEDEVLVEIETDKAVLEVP

Sequence of FKBP-LAP1, P62942 (P62942 whole entry, looked up): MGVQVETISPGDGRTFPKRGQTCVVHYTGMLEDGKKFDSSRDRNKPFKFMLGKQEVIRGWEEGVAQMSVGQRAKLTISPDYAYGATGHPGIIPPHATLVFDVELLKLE
Sequence of mCherry-FKBP-LAP1 (P62942 other isoform, or with tags, fused parts or gaps): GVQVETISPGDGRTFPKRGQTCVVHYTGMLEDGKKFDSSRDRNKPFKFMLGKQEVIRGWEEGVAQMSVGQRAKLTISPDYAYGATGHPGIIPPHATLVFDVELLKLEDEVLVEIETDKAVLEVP

B1: FRB-LplAW37V (other)
chain: ILWHEMWHEGLEEASRLYFGERNVKGMFEVLEPLHAMMERGPQTLKETSFNQAYGRDLMEAQEWCRKYMKSGNVKDLTQAWDLYYHVFRRISKSTLRLLISDSYDPWFNLAVEECIFRQMPATQRVLFLVRNADTVVIGRAQNPWKECNTRRMEEDNVRLARRSSGGGAVFHDLGNTCFTFMAGKPEYDKTISTSIVLNALNALGVSAEASGRNDLVVKTVEGDRKVSGSAYRETKDRGFHHGTLLLNADLSRLANYLNPDKKKLAAKGITSVRSRVTNLTELLPGITHEQVCEAITEAFFAHYGERVEAEIISPNKTPDLPNFAETFARQSSWEWNFGQAPAFSHLLDERFTWGGVELHFDVEKGHITRAQVFTDSLNPAPLEALAGRLQGCLYRADMLQQECEALLVDFPEQEKELRELSAWMAGAVR
With B1 the “minimum concentration of mCherry-FKBP-LAP1 required for a signal-to-background ratio >2:1” value (mCherry-FKBP-LAP1) was 6 µM.

B2: FRB-LplA (other)
chain: B1 chain with V130W
For B2, the “+/- rapamycin signal-to-background ratio of lipoylation, anti-lipoic acid immunoblot, purified proteins at 10 µM each” value (FKBP-LAP1) was > 12 ratio (:1), the “signal-to-background ratio of lipoylation in COS7 cells (+/- 100 nM rapamycin), cell lysis and immunoblot” value (FKBP-LAP1) was 15 ratio (:1) and the “signal-to-noise ratio of lipoylation in COS-7 cells with 3 minutes of lipoic acid treatment” value (FKBP-LAP1) was 2.5 ratio (:1).

B3: LplAW37V (protein)
chain: STLRLLISDSYDPWFNLAVEECIFRQMPATQRVLFLVRNADTVVIGRAQNPWKECNTRRMEEDNVRLARRSSGGGAVFHDLGNTCFTFMAGKPEYDKTISTSIVLNALNALGVSAEASGRNDLVVKTVEGDRKVSGSAYRETKDRGFHHGTLLLNADLSRLANYLNPDKKKLAAKGITSVRSRVTNLTELLPGITHEQVCEAITEAFFAHYGERVEAEIISPNKTPDLPNFAETFARQSSWEWNFGQAPAFSHLLDERFTWGGVELHFDVEKGHITRAQVFTDSLNPAPLEALAGRLQGCLYRADMLQQECEALLVDFPEQEKELRELSAWMAGAVR
In the case of B3, the “Km of the enzyme for LAP1 (HPLC assay, ligation of coumarin probe to purified FKBP-LAP1)” value (FKBP-LAP1, P62942) is reported as 681 ± 168 µM.
